Binding to DCs (MFI ratio), BiP, mix of HSP70/BiP-binding peptides + BiP and Binding to DCs (MFI ratio), BiP, Aβ16-22/Aβ25-35 + BiP data for one substance are collected here from patent US20100015126A1, “Methods of Binding of Cross-Beta Structures By Chaperones” (priority 2006, published 2010).

Assay in all cases: cell-based or functional assay
Test [1] concerns the target synthetic peptide 6BB13.
Test [2] concerns the target synthetic human Aβ16-22 (6BB12) (human).
The target of test [3] is synthetic peptide 6BB11.
The target in test [4] is synthetic human Aβ25-35 (6BB6) (human).
Test [5] concerns the target synthetic peptide 6BB9.
Test [6] concerns the target synthetic peptide 6BB10.

Chain of recombinant human BiP with C-terminal linker, FLAG-tag and His-tag (BiP-FLAG-His), P11021 19-654 (P11021 other isoform, or with tags, fused parts or gaps): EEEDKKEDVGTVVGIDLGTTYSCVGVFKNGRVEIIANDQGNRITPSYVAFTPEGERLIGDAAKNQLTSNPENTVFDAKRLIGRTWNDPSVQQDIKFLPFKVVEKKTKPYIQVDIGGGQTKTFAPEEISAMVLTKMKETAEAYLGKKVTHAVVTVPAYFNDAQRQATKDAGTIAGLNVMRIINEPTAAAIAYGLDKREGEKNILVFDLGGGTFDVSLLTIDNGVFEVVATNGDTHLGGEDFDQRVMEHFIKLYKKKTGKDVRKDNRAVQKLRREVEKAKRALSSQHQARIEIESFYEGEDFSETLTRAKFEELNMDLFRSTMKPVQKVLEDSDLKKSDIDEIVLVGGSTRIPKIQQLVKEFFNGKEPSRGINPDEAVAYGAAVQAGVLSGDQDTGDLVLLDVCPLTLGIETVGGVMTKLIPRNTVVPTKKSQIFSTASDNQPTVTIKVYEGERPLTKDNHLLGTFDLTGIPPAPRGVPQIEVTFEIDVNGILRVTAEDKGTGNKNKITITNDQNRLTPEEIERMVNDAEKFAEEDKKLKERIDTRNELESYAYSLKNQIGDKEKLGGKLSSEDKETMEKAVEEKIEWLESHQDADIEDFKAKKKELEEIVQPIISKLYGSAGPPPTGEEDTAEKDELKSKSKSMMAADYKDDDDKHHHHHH

For the substance “recombinant human BiP with C-terminal linker, FLAG-tag and His-tag (BiP-FLAG-His), P11021 19-654”, the Binding to DCs (MFI ratio), BiP, mix of HSP70/BiP-binding peptides + BiP in test [1], in test [3], in test [5] and in test [6] was 1.8 MFI ratio in each case. The Binding to DCs (MFI ratio), BiP, Aβ16-22/Aβ25-35 + BiP in test [2] and in test [4] was 261 MFI ratio in each case.
